This note sets out measurements from FireProtDB (doi:10.1021/bi972642d).

For the data set the following is noted: Bos taurus; pH 7; 25 °C; Urea; CD; Potassium phosphate 10 mM; whole UniProt chain shown.

B1: Protein S100-G wild type, P02633 (protein)
chain: MSAKKSPEELKGIFEKYAAKEGDPNQLSKEELKLLLQTEFPSLLKGPSTLDELFEELDKNGDGEVSFEEFQVLVKKISQ
With B1, the denaturant m value came out at 1.17 kcal/mol/M, the “denaturant midpoint (higher = more stable)” value was determined as 5.6 M and the unfolding free energy came to 6.55 kcal/mol.
